In FireProtDB (doi:10.1016/s0006-3495(99)76955-9):

Conditions: Pseudomonas aeruginosa (strain ATCC 15692 / DSM 22644 / CIP 104116 / JCM 14847 / LMG 12228 / 1C / PRS 101 / PAO1); pH 7.03; 20 °C; Thermal; DSC; phosphate buffer 10 mM; sodium chloride 40 microM; reversible: no; whole UniProt chain shown

B1: Azurin wild type, P00282 (protein)
chain: MLRKLAAVSLLSLLSAPLLAAECSVDIQGNDQMQFNTNAITVDKSCKQFTVNLSHPGNLPKNVMGHNWVLSTAADMQGVVTDGMASGLDKDYLKPDDSRVIAHTKLIGSGEKDSVTFDVSKLKEGEQYMFFCTFPGHSALMKGTLTLK
unfolding enthalpy (calorimetric): 14.6 kcal/mol
unfolding free energy: 14.3 kcal/mol
